The values that follow come from paper PMC8840716, “Functional Antagonism of WRI1 and TCP20 Modulates GH3.3 Expression to Maintain Auxin Homeostasis in Roots” (Plants, 2022).

The experiment addresses T1, GST-AtWRI1 (Arabidopsis, UniProt Q6X5Y6 1-430).
T1 construct: Arabidopsis WRINKLED1 (AtWRI1), AT3G54320, full-length, sub-cloned into pET41a-GST; also called WRINKLED1; GST agarose-coupled AtWRI1; source: E. coli BL21 (DE3), purified
T1 sequence (looked up): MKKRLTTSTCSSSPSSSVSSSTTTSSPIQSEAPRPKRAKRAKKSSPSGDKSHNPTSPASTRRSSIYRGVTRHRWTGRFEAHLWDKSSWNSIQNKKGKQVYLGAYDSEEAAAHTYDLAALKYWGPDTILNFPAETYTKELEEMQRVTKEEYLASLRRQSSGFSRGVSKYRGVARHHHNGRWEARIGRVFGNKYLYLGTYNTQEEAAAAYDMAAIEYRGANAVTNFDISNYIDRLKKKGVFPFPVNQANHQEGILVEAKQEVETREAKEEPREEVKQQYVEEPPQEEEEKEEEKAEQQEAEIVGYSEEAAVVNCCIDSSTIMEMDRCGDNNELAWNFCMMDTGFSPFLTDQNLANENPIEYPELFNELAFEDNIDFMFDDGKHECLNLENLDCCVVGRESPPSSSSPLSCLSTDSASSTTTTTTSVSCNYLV
Kind of experiment: pull-down; purified His-TCP20 incubated with GST beads coupled with purified GST-AtWRI1; 20 mM Tris-HCl pH 7.4, 150 mM NaCl, 1 mM DTT, 0.1 mM EDTA, 0.1% IGEPAL CA-630, 4 °C overnight, 5 washes; immunoblot with anti-His antibody. The conditions noted are these: both partners purified. On the technique in general: In western blotting, separated proteins are transferred to a membrane and probed.

B1: His-TCP20 (natural protein)
chain: not shown
notes: Arabidopsis TCP20, AT3G27010, full-length, sub-cloned into pET41a-6xHis; also called His-tagged TCP20; source: E. coli BL21 (DE3), purified
B1: the binding result is on record as “binds”.
